What was measured:
Giα2 = biological target: T1, Giα2 (Homo sapiens, UniProt P04899); assay: GTPγS binding assay, Giα2; assay type: biochemical; conditions: AGS proteins
T1 construct: made in house; host or cells: Sf9 insect cells
Method: (§1) A and B, the carboxyl region of AGS3 (Pro^463-Ser^650) containing all four GPR repeats was generated as a His-tagged (A) or GST fusion (B) protein for protein interaction assays as described under Examples. All interactions were done in the presence of 10 μM GDP, and the input lanes represent one-tenth of the G-protein used in each interaction assay. A, Giα1 (75 nM) was incubated with 300 nM His-tagged AGS3-GPR in the absence and presence of increasing amounts of the GPR peptide, after which bound Giα was isolated on a nickel affinity matrix, and samples were processed for immunoblotting with Giα antisera. The blot in the upper panel of A was stripped and reprobed with AGS3 antisera to provide internal controls for protein loading. B, Giα2 (75 nM) was incubated with 300 nM AGS3-GPR or GST in the presence and absence of 100 μM GPR consensus peptide, GPR peptide Q15A, or GPR peptide R23F. The immunoblots presented in A and B are representative of three experiments. C and D, GTPγ^35S binding to G-proteins (100 nM) was measured in the absence and presence of peptides as described in the Examples. Data are expressed as the percent of specific binding (˜5 pmol) observed in the absence of peptide and represent the means±S.E. derived from three experiments. The concentration of peptides in D is 10 μM.
GTPγS Binding Assays—GTPγS binding assays were generally conducted as described (39). G-proteins (100 nM) were preincubated for 20 min at 24° C. in the presence and absence of GPR peptides. Binding assays (duplicate determinations) were initiated by addition of 0.5 μM GTPγS (4.0×10^4 dpm/pmol), and incubations (total volume=50 μl) were continued for 30 min at 24° C. Both preincubations and GTPγS binding assays were conducted in binding buffer containing 2 mM MgCl2. Reactions were terminated by rapid filtration through nitrocellulose filters with 4×4-ml washes of stop buffer (50 mM Tris-HCl, 5 mM MgCl2, 1 mM EDTA, pH 7.4, at 4° C.). Radioactivity bound to the filters was determined by liquid scintillation counting. Nonspecific binding was defined by 100 μM […].

brain G-protein = assay: GTPγS binding assay, brain G-protein; assay type: biochemical, bovine; conditions: AGS proteins
Method: as §1, with “The immunoblots presented in A and B are representative of three experiments.” left out, “The concentration of peptides in D is 10 μM.” left out
GTPγS Binding Assays—GTPγS binding assays were generally conducted as described (39). […] Radioactivity bound to the filters was determined by liquid scintillation counting. […]

brain Gβγ = assay: GST fusion protein interaction with purified brain Gβγ; assay type: binding, bovine; conditions: GST fusion protein ~300 nM, Gβγ 40 nM
Text: (A) Bioactivity of cDNA #37 and 53 in yeast strains expressing different Gα subunits. The Gpa1, Giα2Gpa1(1-41), Giα3Gpa1(1-41) and Gα16Gpa1(1-41) yeast strains expressed similar amounts of G-protein as determined by immunoblotting with Gpa1-specific antisera. Each series of experiments include data obtained in the absence of Gα to indicate the signal obtained when the action of Gβγ is not limited by reformation of heterotrimer. Data are presented as the mean±S.E.M of three experiments with duplicate determinations. (B) Interaction of AGS2 and AGS3 with G-proteins. AGS2 and the bioactive AGS3 peptide (74 amino acids) beginning at the first in frame methionine were generated as GST-fusion proteins in bacteria and purified using a glutathione affinity matrix. AGS2 and AGS3 GST fusion proteins were incubated with G-protein subunits (Gα=60-80 nM, Gβγ=40 nM, fusion protein=˜300 nM, total volume=250 ul) for 12 hrs at 4° C. GDP=10 uM. GTPγS=10 uM plus 5 mM MgCl2. […] Giα2 was generated in Sf9 cells as an amino terminal his6-tagged protein and was detected on membrane transfers using anti-Xpress antisera (Invitrogen). Bovine brain Gβγ was detected on membrane transfers with Gβ antisera. […]
Immunoblotting and G-protein interaction assays. […] Bound proteins were detected by immunoblotting membrane transfers with specific antisera. […]

T1 sequence (P04899 whole entry): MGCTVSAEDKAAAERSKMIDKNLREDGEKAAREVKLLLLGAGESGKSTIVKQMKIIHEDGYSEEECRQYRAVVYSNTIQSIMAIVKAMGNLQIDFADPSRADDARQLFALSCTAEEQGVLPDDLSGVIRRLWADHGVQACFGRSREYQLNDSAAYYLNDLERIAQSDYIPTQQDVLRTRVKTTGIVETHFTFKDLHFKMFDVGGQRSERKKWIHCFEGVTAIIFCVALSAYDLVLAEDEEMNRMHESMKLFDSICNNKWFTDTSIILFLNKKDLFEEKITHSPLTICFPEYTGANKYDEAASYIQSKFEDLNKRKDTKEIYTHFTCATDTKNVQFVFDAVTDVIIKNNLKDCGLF

Molecule	effect on GTPγ35S binding to Giα2 (Giα2)	effect on GTPγ35S binding to heterotrimeric brain G-protein (brain G-protein)	interaction with brain Gβγ (brain Gβγ)
AGS2: Activator of G-protein Signalling 2, protein identical to mouse Tctex1, isolated from NG108-15 cDNA library	did not alter	did not alter	directly bound
AGS3: Activator of G-protein Signalling 3; bioactive 74 amino acid fragment isolated in yeast screen, tested as GST fusion (protein, left off: a dimerising Fc or GST) MLIKYQSSRIDDQRCPPPDVLPRGPTMPDEDFFSLIQRVQAKRMDEQRVDLAGSPDQEASGLPDPRQQCPPGAS	did not alter	did not alter	did not interact

Source: patent US20030054411A1, “GPR motifs and uses thereof” (priority 2001, published 2003)
